Here are results for three molecules from patent publication US20110059079A1 (XOMA TECHNOLOGY, published 2011).

Test in all cases: ELISA on plate-coated toxin domain
For orientation: ELISA stands for enzyme-linked immunosorbent assay.

The target of test [1] is BoNT/A light-chain heavy-chain N-terminus (LCHN) domain (UniProt P0DPI0 1-870).
Test [2] concerns the target BoNT/A heavy-chain C-terminus (HCC) domain (UniProt P0DPI0 1093-1296).
Test [3] concerns the target BoNT/A heavy-chain N-terminus (HCN) domain (UniProt P0DPI0 871-1092).

Sequence of BoNT/A heavy-chain C-terminus (HCC) domain (P0DPI0 1093-1296 limits assumed): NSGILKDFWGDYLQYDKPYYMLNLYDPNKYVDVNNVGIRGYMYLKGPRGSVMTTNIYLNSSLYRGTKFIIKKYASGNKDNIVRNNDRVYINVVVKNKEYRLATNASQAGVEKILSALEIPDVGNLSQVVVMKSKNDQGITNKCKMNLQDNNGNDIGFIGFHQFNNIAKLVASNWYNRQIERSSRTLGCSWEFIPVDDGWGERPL
Sequence of BoNT/A heavy-chain N-terminus (HCN) domain (P0DPI0 871-1092 limits assumed): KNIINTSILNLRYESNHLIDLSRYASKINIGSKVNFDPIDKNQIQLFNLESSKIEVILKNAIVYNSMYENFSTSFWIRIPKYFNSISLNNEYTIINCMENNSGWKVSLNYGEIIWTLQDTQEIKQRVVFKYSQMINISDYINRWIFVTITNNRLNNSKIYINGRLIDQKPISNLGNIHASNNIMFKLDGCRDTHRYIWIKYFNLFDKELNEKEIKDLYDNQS
Sequence of BoNT/A light-chain heavy-chain N-terminus (LCHN) domain (P0DPI0 1-870 limits assumed): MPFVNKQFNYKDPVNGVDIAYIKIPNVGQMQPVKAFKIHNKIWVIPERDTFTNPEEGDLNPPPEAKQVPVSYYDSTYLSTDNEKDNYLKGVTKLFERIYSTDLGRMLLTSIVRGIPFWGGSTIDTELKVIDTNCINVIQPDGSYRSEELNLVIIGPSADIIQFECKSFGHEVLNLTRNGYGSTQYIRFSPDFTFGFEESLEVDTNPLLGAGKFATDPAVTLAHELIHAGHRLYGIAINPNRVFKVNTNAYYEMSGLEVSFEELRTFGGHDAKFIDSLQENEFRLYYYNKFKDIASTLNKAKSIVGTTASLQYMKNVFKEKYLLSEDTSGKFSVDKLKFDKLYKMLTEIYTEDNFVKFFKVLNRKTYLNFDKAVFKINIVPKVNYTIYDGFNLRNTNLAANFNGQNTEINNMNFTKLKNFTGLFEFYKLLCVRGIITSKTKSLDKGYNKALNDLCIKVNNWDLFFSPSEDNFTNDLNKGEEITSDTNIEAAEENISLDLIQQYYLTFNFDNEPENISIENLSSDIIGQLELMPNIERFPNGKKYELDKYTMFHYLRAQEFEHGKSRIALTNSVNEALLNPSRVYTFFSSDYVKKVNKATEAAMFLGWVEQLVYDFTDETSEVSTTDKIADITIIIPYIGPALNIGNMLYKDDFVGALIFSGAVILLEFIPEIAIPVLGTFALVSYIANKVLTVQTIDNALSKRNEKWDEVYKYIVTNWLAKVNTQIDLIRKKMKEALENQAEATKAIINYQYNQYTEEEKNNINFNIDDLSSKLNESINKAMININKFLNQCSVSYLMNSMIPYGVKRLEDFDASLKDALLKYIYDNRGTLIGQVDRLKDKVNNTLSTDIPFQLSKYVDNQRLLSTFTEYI

B1: ABT01 (antibody, V domains shown)
VH: QVQLQQSGGGLVQPGGSLRLSCAASGFTFKYDYMYWIRQAPGKGLEWVATISDGGSYTYYSDSVEGRFTTSRDNSKNTLYLQMNSLRAEDTAIYYCSRYRYDDAMDYWGQGTLVTVSS
VL: EIVLTQSPATLSLSPGERATISCRASESVDSYGHSFMQWYQQKPGQAPRLLIYRASNLEPGIPARFSGSGSGTDFTLTISSLEPEDFAVYYCQQGNEVPFTFGQGTKVEIK
With B1, the binding result in test [1] and in test [2] was “no binding” each time.

B2: ABT02 (antibody, V domains shown)
VH: QVQLVQSGGGVVHPGRSLKLSCAGSGFTFSDYDMHWVRQAPGKGLEWVAVMWFDGTEKYSAESVKGRFTISRDNSKNTLFLQMNSLRADDTAVYYCAREPDWLLWGDRGALDVWGQGTTVTVSS
VL: DIVMTQSPSTLSASVGDRVTITCWASQSISSRLAWYQQKPGKAPKLLMYEATSLGSGVPSRFSGSGSGTEFTLTISSLQPDDFAAYYCQHYDTYPYTFGQGTKLEIK
Regarding B2, the binding result in test [3] and in test [1] was “no binding” in each case.

B3: ABT03 (antibody, V domains shown)
VH: QVQLQQSGGGLVQPGGSLRLSCAASGFTFSNYAMTWVRQAPGKGLEWVSSISVGGSDTYYADSVKGRFTVSRDNSKNTLLLQMNSLRAEDTAVYYCAKVRTKYCSSLSCFAGFDSWGQGTRVTVSS
VL: DVVMTQSPSSLSASVGDRVTITCRASQSISSYLHWYQQKPGKAPTLLISDASSSQSGVPSRFSGSRFGTDFTLTISSLQPEDFATYYCQQSYSTRALTFGGGTKVEIK
As to B3, the binding result in test [3] and in test [2] was “no binding” each time.
